Assay results reported in patent US20250152746A1, “BASE EDITING OF ANGPTL3 AND METHODS OF USING SAME FOR TREATMENT OF DISEASE” (Verve Therapeutics, Inc., priority 2020, published 2025).
m = 2'-O-methyl; r = 2'-OH (RNA)

Assays:
PCSK9 gene [1] = assay: PCSK9 gRNA/SpCas9 editing in primary human hepatocytes (Tables 2, 4); assay type: cell-based; conditions: SpCas9 mRNA MS002 1:1 by weight; for Human Primary Hepatocyte Editing % 100: 100 ng/RNA/mL; for Human Primary Hepatocyte Editing % 500: 500 ng/RNA/mL; for Human Primary Hepatocyte Editing % 2500: 2500 ng/RNA/mL
How it was run: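 Editing at the PCSK9 site quantified by NGS of PCR amplicons from genomic DNA. Input: SpCas9 mRNA with gRNA, 1:1 by weight, transfected into primary human hepatocytes at 2500, 500 or 100 ng RNA/mL (tracr-modified guides at 2500, 1250, 500, 250 ng/mL).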

PCSK9 gene [2] = assay: PCSK9 gRNA/SpCas9 editing in primary cynomolgus hepatocytes (Tables 2, 22); assay type: cell-based, cynomolgus monkey; conditions: SpCas9 mRNA MS002 1:1 by weight; for Cyno Primary Hepatocyte Editing % 100: 100 ng/RNA/mL; for Cyno Primary Hepatocyte Editing % 500: 500 ng/RNA/mL; for Cyno Primary Hepatocyte Editing % 2500: 2500 ng/RNA/mL

Molecule	Human Primary Hepatocyte Editing % 100 (PCSK9 gene [1]) [%]	Human Primary Hepatocyte Editing % 500 (PCSK9 gene [1]) [%]	Human Primary Hepatocyte Editing % 2500 (PCSK9 gene [1]) [%]	Cyno Primary Hepatocyte Editing % 100 (PCSK9 gene [2]) [%]	Cyno Primary Hepatocyte Editing % 500 (PCSK9 gene [2]) [%]	Cyno Primary Hepatocyte Editing % 2500 (PCSK9 gene [2]) [%]
GA171: PCSK9 gRNA; protospacer TCTTGGTGAGGTATCCCCGG (SEQ ID NO: 165) (nucleic acid, 2'-O-methyl at 1, 2, other sugars, backbone and T or U not given here; further chemistry not fully specified) guide: UCTTGGTGAGGTATCCCCGGGTTTTAGAGCTAGAAATAGCAAGTTAAAATAAGGCTAGTCCGTTATCAACTTGAAAAAGTGGCACCGAGTCGGTGCTTTT	2.37	9.38	31.75	1.29	9.06	27.79
GA165: PCSK9 gRNA; protospacer CCGTCAGCTCCAGGCGGTCC (SEQ ID NO: 159) (nucleic acid, sugars from the 5' end m3 r94 m3, linkages s3 o93 s3 (s phosphorothioate, o phosphodiester), T or U not given here) guide: CCGUCAGCUCCAGGCGGUCCGUUUUAGAGCUAGAAAUAGCAAGUUAAAAUAAGGCUAGUCCGUUAUCAACUUGAAAAAGUGGCACCGAGUCGGUGCUUUU	4.99	22.3	40.27	5.43	18.00	35.57
GA166: PCSK9 gRNA; protospacer CGCCCGTGCGCAGGAGGACG (SEQ ID NO: 160) (nucleic acid, sugars from the 5' end m3 r94 m3, linkages s3 o93 s3 (s phosphorothioate, o phosphodiester), T or U not given here) guide: CGCCCGUGCGCAGGAGGACGGUUUUAGAGCUAGAAAUAGCAAGUUAAAAUAAGGCUAGUCCGUUAUCAACUUGAAAAAGUGGCACCGAGUCGGUGCUUUU	2.89	10.99	36.89	3.93	14.39	44.77
GA247: PCSK9 gRNA; protospacer CCTCGCCAGGCGCTGGCAGG (SEQ ID NO: 240) (nucleic acid, sugars from the 5' end m3 r94 m3, linkages s3 o93 s3 (s phosphorothioate, o phosphodiester), T or U not given here) guide: CCUCGCCAGGCGCUGGCAGGGUUUUAGAGCUAGAAAUAGCAAGUUAAAAUAAGGCUAGUCCGUUAUCAACUUGAAAAAGUGGCACCGAGUCGGUGCUUUU	0.25	0.17	6.76	0.71	2.62	11.48
GA172: PCSK9 gRNA; protospacer CAGTGCGCTCTGACTGCGAG (SEQ ID NO: 166) (nucleic acid, sugars from the 5' end m3 r94 m3, linkages s3 o93 s3 (s phosphorothioate, o phosphodiester), T or U not given here) guide: CAGUGCGCUCUGACUGCGAGGUUUUAGAGCUAGAAAUAGCAAGUUAAAAUAAGGCUAGUCCGUUAUCAACUUGAAAAAGUGGCACCGAGUCGGUGCUUUU	0.32	3.52	14.01	0.51	2.11	15.58
GA168: PCSK9 gRNA; protospacer CTTGGCGCAGCGGTGGAAGG (SEQ ID NO: 162) (nucleic acid, sugars from the 5' end m3 r94 m3, linkages s3 o93 s3 (s phosphorothioate, o phosphodiester), T or U not given here) guide: CUUGGCGCAGCGGUGGAAGGGUUUUAGAGCUAGAAAUAGCAAGUUAAAAUAAGGCUAGUCCGUUAUCAACUUGAAAAAGUGGCACCGAGUCGGUGCUUUU	–	25.77	54.99	4.75	15.90	41.49
GA174: PCSK9 gRNA; protospacer GGATCTTGGTGAGGTATCCC (SEQ ID NO: 168) (nucleic acid, sugars from the 5' end m3 r94 m3, linkages s3 o93 s3 (s phosphorothioate, o phosphodiester), T or U not given here) guide: GGAUCUUGGUGAGGUAUCCCGUUUUAGAGCUAGAAAUAGCAAGUUAAAAUAAGGCUAGUCCGUUAUCAACUUGAAAAAGUGGCACCGAGUCGGUGCUUUU	1.18	5.24	14.74	1.60	4.88	18.65
